No end group written: not given here.
Assays:
[1] = target: 7E11-C5 monoclonal antibody; test: competitive ELISA, LNCaP extract on plate
[2] = target: 7E11-C5 monoclonal antibody; test: competitive ELISA, peptide 1.75-1130 nM pre-incubated with 7E11-C5 at 30 ng/ml (0.2 nM), LNCaP extract on plate

LYANPGMYSRLHSPA-NH2 [peptide SEQ ID NO 31 (amide form)]
molar ratio of peptide to monovalent binding site on the antibody at the IC50 [1]: 400 | IC50 [2]: 160 nM

From patent US5747334
